Measurements published in the supplement of paper PMC9112550, “Optimization of the antimicrobial peptide Bac7 by deep mutational scanning” (BMC Biology, 2022).

Each sequence was assayed on Escherichia coli TOP10 (assay: shrunken log2 fold change of peptide-encoding DNA abundance (4.5 h post-induction vs induction); higher = less antimicrobial activity (less host growth inhibition)). Details: time post-induction: 4.5 h; library: site-saturation at positions 5, 18, 19, 20.
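Further: peptides expressed intracellularly from a pBAD plasmid library in pooled LB shake-flask culture, induced with 0.3% L-arabinose, DNA abundance read by NGS, three biological replicates, DESeq2 with apeglm shrinkage.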

Sequence	shrunken log2 fold change
RRIRGRPPRLPRPRPRPNQYPRP	-0.166
RRIRIRPPRLPRPRPRPMWIPRP	-0.208
RRIRWRPPRLPRPRPRPSDAPRP	0.191
RRIRPRPPRLPRPRPRPNLFPRP	0.175
RRIRSRPPRLPRPRPRPSQAPRP	-0.0295
RRIRPRPPRLPRPRPRPHHYPRP	-0.37
RRIRRRPPRLPRPRPRPITKPRP	0.165
RRIRPRPPRLPRPRPRPRYTPRP	-0.266
RRIRKRPPRLPRPRPRPTPDPRP	0.559
RRIRLRPPRLPRPRPRPQGHPRP	0.137
RRIRIRPPRLPRPRPRPNLAPRP	-0.114
RRIRGRPPRLPRPRPRPIPYPRP	-0.1
RRIRVRPPRLPRPRPRPLIGPRP	0.0681
RRIRERPPRLPRPRPRPFMEPRP	-0.00484
RRIRPRPPRLPRPRPRPMNRPRP	-0.118
RRIRNRPPRLPRPRPRPCFAPRP	0.0964
RRIRGRPPRLPRPRPRPNLEPRP	0.678
RRIRGRPPRLPRPRPRPIVYPRP	-0.0951
RRIRQRPPRLPRPRPRPQNRPRP	-0.0176
RRIRHRPPRLPRPRPRPHEIPRP	-0.0135

Sequence	shrunken log2 fold change
RRIRLRPPRLPRPRPRPAPCPRP	0.0424
RRIRSRPPRLPRPRPRPDERPRP	0.1
RRIRMRPPRLPRPRPRPEHAPRP	2.54
RRIRLRPPRLPRPRPRPMCVPRP	-0.231
RRIRHRPPRLPRPRPRPTKLPRP	-0.255
RRIRYRPPRLPRPRPRPKNFPRP	-0.663
RRIRNRPPRLPRPRPRPDHRPRP	-0.0124
RRIRARPPRLPRPRPRPDVHPRP	0.196
RRIRGRPPRLPRPRPRPAGRPRP	0.692
RRIRARPPRLPRPRPRPEKLPRP	0.758
RRIRNRPPRLPRPRPRPHAVPRP	0.00516
RRIRNRPPRLPRPRPRPRFMPRP	-0.098
RRIRRRPPRLPRPRPRPWVSPRP	-0.0738
RRIRNRPPRLPRPRPRPFAWPRP	0.0341
RRIRKRPPRLPRPRPRPSIIPRP	-0.221
RRIRSRPPRLPRPRPRPNMMPRP	-0.166
RRIRPRPPRLPRPRPRPYVEPRP	-0.415
RRIRNRPPRLPRPRPRPIVIPRP	-0.29
RRIRNRPPRLPRPRPRPNCAPRP	-0.123
RRIRFRPPRLPRPRPRPHTWPRP	-0.415

Sequence	shrunken log2 fold change
RRIRRRPPRLPRPRPRPDNNPRP	-0.187
RRIRFRPPRLPRPRPRPNGRPRP	-0.123
RRIRARPPRLPRPRPRPNEAPRP	0.269
RRIRARPPRLPRPRPRPKENPRP	0.379
RRIRMRPPRLPRPRPRPGNCPRP	0.0879
RRIRQRPPRLPRPRPRPQPPPRP	0.194
RRIRYRPPRLPRPRPRPASEPRP	-0.0202
RRIRFRPPRLPRPRPRPMEHPRP	-0.416
RRIRIRPPRLPRPRPRPSRAPRP	-0.212
RRIRRRPPRLPRPRPRPYPPPRP	-0.176
RRIRARPPRLPRPRPRPYTFPRP	-0.444
RRIRKRPPRLPRPRPRPCCRPRP	0.146
RRIRPRPPRLPRPRPRPCKPPRP	-0.136
RRIRGRPPRLPRPRPRPYMMPRP	-0.232
RRIRKRPPRLPRPRPRPASLPRP	-0.23
RRIRDRPPRLPRPRPRPFLAPRP	0.341
RRIRGRPPRLPRPRPRPARWPRP	0.998
RRIRIRPPRLPRPRPRPTVKPRP	-0.468
RRIRARPPRLPRPRPRPSHGPRP	0.115
RRIRSRPPRLPRPRPRPAWTPRP	0.0161
